Five molecules from patent EP3623383A1 (Deutsches Krebsforschungszentrum, Stiftung des öffentlichen …, dated 2020) can be followed below.

Positions count from the first letter of the chain named.

As usually defined, the EC50 is the midpoint of the concentration-response curve. A low value points to an effect from little substance. The Kd is the concentration at which binding is half-saturated. By koff is commonly meant the rate constant with which the complex falls apart. The term kon denotes the second-order rate constant of association.

For assay [1], the target named is T1, FLT3 as expressed on cells (NALM16 cells, FLT3+) (human, UniProt P36888 27-993).
T1 construct: whole, on cells; Endogenous FLT3 of a human leukemia cell line; also called Nalm16 cells expressing FLT3
T1 sequence (looked up): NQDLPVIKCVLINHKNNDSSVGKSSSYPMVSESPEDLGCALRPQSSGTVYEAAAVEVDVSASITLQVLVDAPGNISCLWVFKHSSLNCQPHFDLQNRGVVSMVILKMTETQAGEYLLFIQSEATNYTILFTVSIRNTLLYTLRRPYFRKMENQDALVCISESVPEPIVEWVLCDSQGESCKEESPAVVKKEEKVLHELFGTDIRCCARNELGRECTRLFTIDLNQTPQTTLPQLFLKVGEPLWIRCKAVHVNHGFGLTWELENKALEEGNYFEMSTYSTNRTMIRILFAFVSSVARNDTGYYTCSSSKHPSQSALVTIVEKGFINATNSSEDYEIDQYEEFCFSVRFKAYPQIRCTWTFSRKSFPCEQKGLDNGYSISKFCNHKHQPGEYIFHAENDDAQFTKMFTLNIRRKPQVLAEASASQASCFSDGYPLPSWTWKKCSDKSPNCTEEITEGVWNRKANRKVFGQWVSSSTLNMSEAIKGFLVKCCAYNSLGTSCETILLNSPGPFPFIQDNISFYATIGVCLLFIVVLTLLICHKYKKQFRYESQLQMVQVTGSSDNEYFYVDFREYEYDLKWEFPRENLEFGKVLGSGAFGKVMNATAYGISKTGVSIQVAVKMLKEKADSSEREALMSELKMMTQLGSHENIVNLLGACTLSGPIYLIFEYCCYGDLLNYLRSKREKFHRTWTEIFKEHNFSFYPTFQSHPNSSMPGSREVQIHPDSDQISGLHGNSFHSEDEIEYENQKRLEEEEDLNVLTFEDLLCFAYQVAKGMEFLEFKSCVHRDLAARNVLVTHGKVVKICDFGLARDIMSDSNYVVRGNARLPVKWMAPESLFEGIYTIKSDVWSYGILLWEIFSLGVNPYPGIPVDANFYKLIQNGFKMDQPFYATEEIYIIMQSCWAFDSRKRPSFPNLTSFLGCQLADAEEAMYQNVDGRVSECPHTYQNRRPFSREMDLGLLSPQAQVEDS
Description: flow cytometry on FLT3+ NALM16 cells; value told of the FLT3 binding part shared by V6 to V9. A general note: A flow cytometer gives signals particle by particle.

Assay [2] deals with T2, His tagged, recombinant FLT3 protein (Sino Biologicals) (human, UniProt P36888 27-541, limits assumed).
T2 construct: also called soluble recombinant FLT3 protein; not shown: His tag
T2 sequence (looked up): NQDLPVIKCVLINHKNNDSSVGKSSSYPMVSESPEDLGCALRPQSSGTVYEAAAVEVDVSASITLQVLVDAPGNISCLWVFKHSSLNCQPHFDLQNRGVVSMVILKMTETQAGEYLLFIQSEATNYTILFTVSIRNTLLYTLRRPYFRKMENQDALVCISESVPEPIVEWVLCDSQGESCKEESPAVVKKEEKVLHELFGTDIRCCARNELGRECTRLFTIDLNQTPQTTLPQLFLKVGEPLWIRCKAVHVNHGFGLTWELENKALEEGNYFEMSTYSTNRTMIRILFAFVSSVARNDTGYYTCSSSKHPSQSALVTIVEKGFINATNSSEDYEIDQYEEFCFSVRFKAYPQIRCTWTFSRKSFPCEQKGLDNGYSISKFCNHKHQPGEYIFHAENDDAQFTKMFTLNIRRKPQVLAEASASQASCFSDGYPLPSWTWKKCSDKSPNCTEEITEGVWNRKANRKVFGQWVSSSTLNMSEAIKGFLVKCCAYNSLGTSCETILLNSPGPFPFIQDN
Description: SPR (Biacore X); antibody captured on protein A chip, His-tagged FLT3 in solution. In general terms: In SPR one partner is held on a chip, and binding of the other changes the refractive index at the surface.

Assay [3] concerns the target T3, CD3 as expressed on Jurkat cells (CD3+) (human, UniProt P07766 23-207).
T3 construct: whole, on cells; CD3 is a complex of several chains; also called Jurkat cells expressing CD3
Description: flow cytometry on CD3+ Jurkat cells; value told of the CD3 binding part shared by V1 to V5.

T3 sequence (P07766 23-207): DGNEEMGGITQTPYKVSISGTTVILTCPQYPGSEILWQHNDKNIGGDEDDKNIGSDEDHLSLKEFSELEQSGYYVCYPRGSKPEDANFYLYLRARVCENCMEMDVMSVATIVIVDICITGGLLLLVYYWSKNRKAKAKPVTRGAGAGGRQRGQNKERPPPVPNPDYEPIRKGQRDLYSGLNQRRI

B1: V6-V8 (CC-2 variant, parental 4G8 FLT3 domain with UCHT1 CD3 scFv variant V8) (bispecific antibody, human IgG1, kappa)
heavy: QVQLQQPGAELVKPGASLKLSCKSSGYTFTSYWMHWVRQRPGHGLEWIGEIDPSDSYKDYNQKFKDKATLTVDRSSNTAYMHLSSLTSDDSAVYYCARAITTTPFDFWGQGTTLTVSSASTKGPSVFPLAPSSKSTSGGTAALGCLVKDYFPEPVTVSWNSGALTSGVHTFPAVLQSSGLYSLSSVVTVPSSSLGTQTYICNVNHKPSNTKVDKKVEPKSCDKTHTCPPCPAPPVAGPSVFLFPPKPKDTLMISRTPEVTCVVVGVSHEDPEVKFNWYVDGVEVHNAKTKPREEQYNSTYRVVSVLTVLHQDWLNGKEYKCKVSNKQLPSPIEKTISKAKGQPREPQVYTLPPSRDELTKNQVSLTCLVKGFYPSDIAVEWESNGQPENNYKTTPPVLDSDGSFFLYSKLTVDKSRWQQGNVFSCSVMHEALHNHYTQKSLSLSPGKSGDIQMTQSPSSLSASVGDRVTITCRASQDIRNYLNWYQQKPGKAPKLLIYYTSRLESGVPSRFSGSGSGTDYTLTISSLQPEDFATYYCQQGNTLPWTFGQGTKVEIKGGGGSGGGGSGGGGSEVQLVESGGGLVQPGGSLRLSCAASGYSFTGYTMNWVRQAPGKGLEWVALINPYKGVSTYNQKFKDRFTISVDDSKNTAYLQMNSLRAEDTAVYYCARSGYYGDSDWYFDVWGQGTLVTVSS
light: DIVLTQSPATLSVTPGDSVSLSCRASQSISNNLHWYQQKSHESPRLLIKYASQSISGIPSRFSGSGSGTDFTLSINSVETEDFGVYFCQQSNTWPYTFGGGTKLEIKRTVAAPSVFIFPPSDEQLKSGTASVVCLLNNFYPREAKVQWKVDNALQSGNSQESVTEQDSKDSTYSLSSTLTLSKADYEKHKVYACEVTHQGLSSPVTKSFNRGEC
notes: IgGsc format, Fc-attenuated
In the case of B1, the EC50 in assay [1] is ~1 nM.

B2: V6-V9 (CC-2 variant, parental 4G8 FLT3 domain with UCHT1 CD3 scFv variant V9) (bispecific antibody, human IgG1, kappa)
heavy: QVQLQQPGAELVKPGASLKLSCKSSGYTFTSYWMHWVRQRPGHGLEWIGEIDPSDSYKDYNQKFKDKATLTVDRSSNTAYMHLSSLTSDDSAVYYCARAITTTPFDFWGQGTTLTVSSASTKGPSVFPLAPSSKSTSGGTAALGCLVKDYFPEPVTVSWNSGALTSGVHTFPAVLQSSGLYSLSSVVTVPSSSLGTQTYICNVNHKPSNTKVDKKVEPKSCDKTHTCPPCPAPPVAGPSVFLFPPKPKDTLMISRTPEVTCVVVGVSHEDPEVKFNWYVDGVEVHNAKTKPREEQYNSTYRVVSVLTVLHQDWLNGKEYKCKVSNKQLPSPIEKTISKAKGQPREPQVYTLPPSRDELTKNQVSLTCLVKGFYPSDIAVEWESNGQPENNYKTTPPVLDSDGSFFLYSKLTVDKSRWQQGNVFSCSVMHEALHNHYTQKSLSLSPGKSGEVQLVESGGGLVQPGGSLRLSCAASGYSFTGYTMNWVRQAPGKGLEWVALINPYKGVSTYNQKFKDRFTISVDKSKNTAYLQMNSLRAEDTAVYYCARSGYYGDSDWYFDVWGQGTLVTVSSGGGGSGGGGSGGGGSDIQMTQSPSSLSASVGDRVTITCRASQDIRNYLNWYQQKPGKAPKLLIYYTSRLESGVPSRFSGSGSGTDYTLTISSLQPEDFATYYCQQGNTLPWTFGQGTKVEIK
light: B1 light
notes: IgGsc format, Fc-attenuated
As to B2, in assay [1], the EC50 is ~1 nM.

B3: V6-V7 (CC-2 variant, parental 4G8 FLT3 domain with UCHT1 CD3 scFv variant V7) (bispecific antibody, human IgG1, kappa)
heavy: B1 heavy with N632A, Q633D, K634S, D637G
light: B1 light
notes: IgGsc format, Fc-attenuated
With B3, the concentration giving a half-maximal response (EC50) in assay [1] was ~1 nM.

B4: V6-V6 (CC-2, FLT3 (4G8) x CD3 (humanized UCHT1) bispecific IgGsc antibody) (bispecific antibody)
heavy: B1 heavy with D645K
light: B1 light
notes: Mouse 4G8 variable regions on human IgG1 constant regions, Fc-attenuated, C-terminal humanized UCHT1 scFv; also called mouse FLT3xCD3 bispecific antibody
Take B4: the EC50 in assay [1] was ~1 nM.

B5: V4-V6 (CC-2 variant 4, bispecific FLT3xCD3 IgGsc antibody) (bispecific antibody)
heavy: QVQLVQSGAEVKKPGASVKVSCKASGYTFTSYWMHWVRQAPGQGLEWIGEIDPSDSYKDYNQKFKDRVTMTRDTSTSTVYMELSSLRSEDTAVYYCARAITTTPFDFWGQGTTVTVSSASTKGPSVFPLAPSSKSTSGGTAALGCLVKDYFPEPVTVSWNSGALTSGVHTFPAVLQSSGLYSLSSVVTVPSSSLGTQTYICNVNHKPSNTKVDKKVEPKSCDKTHTCPPCPAPPVAGPSVFLFPPKPKDTLMISRTPEVTCVVVGVSHEDPEVKFNWYVDGVEVHNAKTKPREEQYNSTYRVVSVLTVLHQDWLNGKEYKCKVSNKQLPSPIEKTISKAKGQPREPQVYTLPPSRDELTKNQVSLTCLVKGFYPSDIAVEWESNGQPENNYKTTPPVLDSDGSFFLYSKLTVDKSRWQQGNVFSCSVMHEALHNHYTQKSLSLSPGKSGDIQMTQSPSSLSASVGDRVTITCRASQDIRNYLNWYQQKPGKAPKLLIYYTSRLESGVPSRFSGSGSGTDYTLTISSLQPEDFATYYCQQGNTLPWTFGQGTKVEIKGGGGSGGGGSGGGGSEVQLVESGGGLVQPGGSLRLSCAASGYSFTGYTMNWVRQAPGKGLEWVALINPYKGVSTYNQKFKDRFTISVDKSKNTAYLQMNSLRAEDTAVYYCARSGYYGDSDWYFDVWGQGTLVTVSS
light: EIVMTQSPATLSVSPGERATLSCRASQSISNNLHWYQQKPGQAPRLLIKYASQSISGIPARFSGSGSGTEFTLTISSLQSEDFAVYFCQQSNTWPYTFGGGTKLEIKTVAAPSVFIFPPSDEQLKSGTASVVCLLNNFYPREAKVQWKVDNALQSGNSQESVTEQDSKDSTYSLSSTLTLSKADYEKHKVYACEVTHQGLSSPVTKSFNRGEC
notes: IgGsc format, Fc-attenuated; also called Version 4; variant V4
For B5, in assay [2], the dissociation constant Kd stood at 480 nM, the dissociation rate constant (koff) came to 0.00887 s⁻¹ and the kon was 18800 M⁻¹ s⁻¹. Also, in assay [3], the EC50 was ~10 nM.
